# Measurements as given in the supplement of paper PMC9112550, “Optimization of the antimicrobial peptide Bac7 by deep mutational scanning” (BMC Biology, 2022).
# Test system: Escherichia coli TOP10
# Experiment: shrunken log2 fold change of peptide-encoding DNA abundance (4.5 h post-induction vs induction); higher = less antimicrobial activity (less host growth inhibition)
# Conditions: time post-induction: 4.5 h; library: site-saturation at positions 5, 18, 19, 20
# 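Note: peptides expressed intracellularly from a pBAD plasmid library in pooled LB shake-flask culture, induced with 0.3% L-arabinose, DNA abundance read by NGS, three biological replicates, DESeq2 with apeglm shrinkage.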
row,Sequence,shrunken log2 fold change
1,RRIRFRPPRLPRPRPRPVQHPRP,-0.044
2,RRIRCRPPRLPRPRPRPCIHPRP,-0.415
3,RRIRVRPPRLPRPRPRPNAPPRP,0.379
4,RRIRTRPPRLPRPRPRPCQYPRP,-0.293
5,RRIRMRPPRLPRPRPRPWWRPRP,0.494
6,RRIRFRPPRLPRPRPRPCSSPRP,0.0898
7,RRIRVRPPRLPRPRPRPRCEPRP,0.133
8,RRIRIRPPRLPRPRPRPCMCPRP,-0.422
9,RRIRCRPPRLPRPRPRPLDHPRP,-0.289
10,RRIRVRPPRLPRPRPRPPILPRP,-0.313
11,RRIRARPPRLPRPRPRPFVGPRP,-0.0485
12,RRIRLRPPRLPRPRPRPCLCPRP,-0.0557
13,RRIRCRPPRLPRPRPRPRKSPRP,0.126
14,RRIRDRPPRLPRPRPRPAGKPRP,0.0578
15,RRIRDRPPRLPRPRPRPRYNPRP,-0.513
16,RRIRLRPPRLPRPRPRPDIMPRP,-0.0927
17,RRIRWRPPRLPRPRPRPQLYPRP,0.185
18,RRIRERPPRLPRPRPRPHDTPRP,-0.332
19,RRIRCRPPRLPRPRPRPFCMPRP,0.174
20,RRIRMRPPRLPRPRPRPQQSPRP,0.0524
21,RRIRGRPPRLPRPRPRPVNEPRP,0.517
22,RRIRQRPPRLPRPRPRPGQAPRP,0.0026
23,RRIRFRPPRLPRPRPRPQPYPRP,-0.34
24,RRIRQRPPRLPRPRPRPHKHPRP,-0.502
25,RRIRIRPPRLPRPRPRPQTFPRP,-0.156

row,Sequence,shrunken log2 fold change
1,RRIRTRPPRLPRPRPRPGKMPRP,0.181
2,RRIRIRPPRLPRPRPRPVPHPRP,0.0565
3,RRIRQRPPRLPRPRPRPHLAPRP,-0.0779
4,RRIRFRPPRLPRPRPRPQDHPRP,-0.391
5,RRIRHRPPRLPRPRPRPITCPRP,-0.0107
6,RRIRHRPPRLPRPRPRPVANPRP,-0.0206
7,RRIRHRPPRLPRPRPRPPPRPRP,1.25
8,RRIRCRPPRLPRPRPRPDYDPRP,0.0933
9,RRIRYRPPRLPRPRPRPKQQPRP,-0.0891
10,RRIRYRPPRLPRPRPRPCAYPRP,-0.0775
11,RRIRPRPPRLPRPRPRPNDVPRP,-0.206
12,RRIRSRPPRLPRPRPRPIDNPRP,-0.163
13,RRIRQRPPRLPRPRPRPAPVPRP,1.06
14,RRIRERPPRLPRPRPRPWVWPRP,0.0922
15,RRIRYRPPRLPRPRPRPAMLPRP,-0.372
16,RRIRQRPPRLPRPRPRPEPNPRP,-0.0098
17,RRIRYRPPRLPRPRPRPLWQPRP,-0.499
18,RRIRMRPPRLPRPRPRPFTWPRP,0.0653
19,RRIRCRPPRLPRPRPRPSYFPRP,-0.193
20,RRIRKRPPRLPRPRPRPHDCPRP,0.108
21,RRIRHRPPRLPRPRPRPHQWPRP,-0.0218
22,RRIRKRPPRLPRPRPRPKGTPRP,0.00171
23,RRIRDRPPRLPRPRPRPHIIPRP,-1.27
24,RRIRNRPPRLPRPRPRPTVGPRP,-0.0817
25,RRIRKRPPRLPRPRPRPIVIPRP,-0.0175

row,Sequence,shrunken log2 fold change
1,RRIRGRPPRLPRPRPRPAEMPRP,0.621
2,RRIRDRPPRLPRPRPRPNICPRP,0.153
3,RRIRYRPPRLPRPRPRPSWIPRP,-0.341
4,RRIRQRPPRLPRPRPRPFVCPRP,-0.0472
5,RRIRIRPPRLPRPRPRPPPHPRP,0.392
6,RRIRPRPPRLPRPRPRPKLQPRP,-0.00543
7,RRIRARPPRLPRPRPRPWNIPRP,-0.675
8,RRIRLRPPRLPRPRPRPPQHPRP,0.197
9,RRIRGRPPRLPRPRPRPFATPRP,2.68
10,RRIRERPPRLPRPRPRPTWTPRP,-0.07
11,RRIRTRPPRLPRPRPRPRGFPRP,0.732
12,RRIRDRPPRLPRPRPRPVTTPRP,0.0135
13,RRIRCRPPRLPRPRPRPQRKPRP,0.203
14,RRIRERPPRLPRPRPRPRVLPRP,0.161
15,RRIRIRPPRLPRPRPRPYHRPRP,-0.00133
16,RRIRCRPPRLPRPRPRPWFPPRP,-0.699
17,RRIRCRPPRLPRPRPRPWAKPRP,-0.234
18,RRIRERPPRLPRPRPRPAYCPRP,0.0672
19,RRIRPRPPRLPRPRPRPPAEPRP,0.632
20,RRIRIRPPRLPRPRPRPTNDPRP,-0.246
21,RRIRFRPPRLPRPRPRPIYYPRP,-1.24
22,RRIRCRPPRLPRPRPRPKWQPRP,0.0444
23,RRIRIRPPRLPRPRPRPEDNPRP,-0.138
24,RRIRSRPPRLPRPRPRPIRMPRP,-0.109
25,RRIRWRPPRLPRPRPRPPAAPRP,0.913

row,Sequence,shrunken log2 fold change
1,RRIRARPPRLPRPRPRPEENPRP,1.26
2,RRIRARPPRLPRPRPRPNNDPRP,0.026
3,RRIRLRPPRLPRPRPRPWVPPRP,-0.569
4,RRIRWRPPRLPRPRPRPYYCPRP,-0.00583
5,RRIRFRPPRLPRPRPRPLNGPRP,0.073
6,RRIRTRPPRLPRPRPRPAHHPRP,-0.0336
7,RRIRRRPPRLPRPRPRPNQNPRP,0.14
8,RRIRTRPPRLPRPRPRPIMYPRP,-0.347
9,RRIRDRPPRLPRPRPRPSVTPRP,0.0709
10,RRIRSRPPRLPRPRPRPMTYPRP,0.132
11,RRIRCRPPRLPRPRPRPCSKPRP,-0.0735
12,RRIRDRPPRLPRPRPRPDWRPRP,0.183
13,RRIRARPPRLPRPRPRPGGPPRP,0.294
14,RRIRFRPPRLPRPRPRPLADPRP,-0.0773
15,RRIRPRPPRLPRPRPRPILTPRP,-0.211
16,RRIRWRPPRLPRPRPRPSPDPRP,0.236
17,RRIRYRPPRLPRPRPRPKHDPRP,-0.648
18,RRIRKRPPRLPRPRPRPDFMPRP,0.028
19,RRIRVRPPRLPRPRPRPIIKPRP,-0.351
20,RRIRKRPPRLPRPRPRPHMRPRP,0.0568
21,RRIRERPPRLPRPRPRPNGDPRP,-0.0249
22,RRIRDRPPRLPRPRPRPSNNPRP,-0.487
23,RRIRMRPPRLPRPRPRPGDLPRP,-0.0671
24,RRIRQRPPRLPRPRPRPSHPPRP,-0.272
25,RRIRGRPPRLPRPRPRPENQPRP,0.534

row,Sequence,shrunken log2 fold change
1,RRIRERPPRLPRPRPRPIIFPRP,-0.352
2,RRIRLRPPRLPRPRPRPGGSPRP,0.259
3,RRIRRRPPRLPRPRPRPRKMPRP,0.163
4,RRIRPRPPRLPRPRPRPISWPRP,-0.00365
5,RRIRERPPRLPRPRPRPEPAPRP,0.428
6,RRIRRRPPRLPRPRPRPHNTPRP,-0.115
7,RRIRQRPPRLPRPRPRPDLDPRP,0.0552
8,RRIRPRPPRLPRPRPRPVVEPRP,-0.0705
9,RRIRRRPPRLPRPRPRPRMNPRP,0.545
10,RRIRDRPPRLPRPRPRPIVLPRP,-0.176
11,RRIRRRPPRLPRPRPRPPDFPRP,-0.079
12,RRIRMRPPRLPRPRPRPGHCPRP,-0.0518
13,RRIRWRPPRLPRPRPRPIDAPRP,0.0128
14,RRIRQRPPRLPRPRPRPSGVPRP,-0.141
15,RRIRLRPPRLPRPRPRPNIAPRP,-0.0706
16,RRIRTRPPRLPRPRPRPAWVPRP,0.285
17,RRIRGRPPRLPRPRPRPNKHPRP,0.124
18,RRIRHRPPRLPRPRPRPVGTPRP,0.0773
19,RRIRTRPPRLPRPRPRPKWFPRP,-0.0479
20,RRIRRRPPRLPRPRPRPLDMPRP,-0.114
21,RRIRFRPPRLPRPRPRPCDGPRP,-0.0604
22,RRIRMRPPRLPRPRPRPSHQPRP,-0.0291
23,RRIRNRPPRLPRPRPRPPTEPRP,0.389
24,RRIRGRPPRLPRPRPRPPTWPRP,0.466
25,RRIRVRPPRLPRPRPRPYHLPRP,-0.184

row,Sequence,shrunken log2 fold change
1,RRIRMRPPRLPRPRPRPFMVPRP,-0.161
2,RRIRWRPPRLPRPRPRPRWCPRP,-0.00787
3,RRIRMRPPRLPRPRPRPCLYPRP,-0.331
4,RRIRNRPPRLPRPRPRPLNHPRP,-0.286
5,RRIRQRPPRLPRPRPRPGVRPRP,-0.0485
6,RRIRDRPPRLPRPRPRPNIMPRP,-0.367
7,RRIRFRPPRLPRPRPRPMLGPRP,-0.055
8,RRIRTRPPRLPRPRPRPIMQPRP,-0.201
9,RRIRKRPPRLPRPRPRPYDHPRP,-0.084
10,RRIRDRPPRLPRPRPRPPMEPRP,-0.0667
11,RRIRQRPPRLPRPRPRPLVDPRP,0.187
12,RRIRRRPPRLPRPRPRPEHYPRP,0.0555
13,RRIRMRPPRLPRPRPRPWRHPRP,0.0256
14,RRIRCRPPRLPRPRPRPPHKPRP,0.68
15,RRIRVRPPRLPRPRPRPREPPRP,0.947
16,RRIRRRPPRLPRPRPRPQSSPRP,-0.0217
17,RRIRQRPPRLPRPRPRPLMPPRP,-0.0453
18,RRIRSRPPRLPRPRPRPFYAPRP,-0.236
19,RRIRHRPPRLPRPRPRPGTWPRP,-0.0162
20,RRIRVRPPRLPRPRPRPPRIPRP,0.116
21,RRIRGRPPRLPRPRPRPYKTPRP,-0.0831
22,RRIRERPPRLPRPRPRPICGPRP,0.0966
23,RRIRGRPPRLPRPRPRPYFYPRP,-0.03
24,RRIRHRPPRLPRPRPRPELGPRP,-0.101
25,RRIRMRPPRLPRPRPRPAKCPRP,0.147
